Experimental data as given in the DeepSol protein solubility set.

Assay: soluble on expression in E. coli; label from the status in PepcDB or PDB records

Sequence	soluble on expression in E. coli
LPELSLEELIRMHDHICFLKSLGYTDYQKHLKKSKVLIVGLGKLGANIAYNLCNVGVGSVILFDRTFISPTEISDIYTKDAIGMKKADYLRKKLTSIFPEIEVQNLPDTINISNYLNDSDFDIIIVNSEHFNIKLLSELNDLLYKISTPYMYAWIEGSRGYIGPLIYPPDTSCFNCYLTWRFFGTFMEDKIKAINNYGSSGYIFPLDKIIGALTVLEVCKAIGSLGTPLFNKIILVEVLPTLTIRYIPILKDPKCNVCEG	not soluble
MKSKYEPLFDKVELPNGVELRNRFVLAPLTHISSNDDGTISDVELPYIEKRSQDVGITINAASNVSDVGKAFPGQPSIAHDSNIEGLKRLATAMKKNGAKALVQIHHGGAQALPELTPDGDVVAPSPISLKSFGQKQEHSAREMTNEEIEQAIKDFGEATRRAIEAGFDGVEIHGANHYLIHQFVSPYYNRRNDVWANQYKFPVAVIEEVLKAKEAYGNKDFIVGYRLSPEEAESPGITMEITEELVNKISHMPIDYIHVSMMDTHATTREGKYAGQERLPLIHKWINGRMPLIGIGSIFTADEALDAVENVGVDLVAIGRELLLDYQFVEKIKDGREDEIINYFDPEREDNHHLTPNLWHQFNEGFYPLPRKDK	not soluble
MKCKFCSREAYIKIHYPKMYLCEEHFKEYFERKVSRTIERYKLLTKDERILVAVSGGKDSAVTAYVLKKLGYNIECLHINLGISGYSEKSEEYAKKQCKLIGAPLHIVRIKEILGYGIGEVKTRRPPCSYCGLTKRYIMNKFAYDNGFDAIATGHNLDDEASFLLNNILHWNTEYLAKGGPILPQQGKFIKKVKPLYEVTEREVVAYALAVGLEYIVEECPYARGATTLDMKGVLNELEEKRPGTKFNFVRGYLKKKKLFEPEIKEKEIKECKICRMPSSGDICAFCKFWGLKKEINFKVSSTDEEPFGP	soluble
QSSAQRHADLNTLIGHTEPVANIAQDLYSSLSLADTEASASFVRGTNDNYVEYIQKAALLVTQTDGDIANIATQLPVYTGLVETARANNRQGHPVGVAYMSEASTLMQESILPAASQLYLNAAEQVSTAQRNLARPQ	not soluble
MKHEEMNQRFNHLENEITELNKKLSALVSSEDENKRRDEHYAAIYDYCHKVAHETFMKFLQEKFLPAALSEKEAAYLRPEYVITVNSAGEEEHKSDFIASAPDKDQEPHRPFRVSCEEGEFVVYENGKPVRASHHHCLKIINLAIRCLKDENTRVMKRIGRCMGYLQVAAEIEALASGADMDAAVREALLRDFNTPPLRKSLMTGSSRG	not soluble
MGSDKIHHHHHHMTVGTLPIWSKTFSYAIRSLCFLHIIHMYAYEFTETRGESMLPTLSATNDYVHVLKNFQNGRGIKMGDCIVALKPTDPNHRICKRVTGMPGDLVLVDPSTIVNYVGDVLVDEERFGTYIKVPEGHVWVTGDNLSHSLDSRTYNALPMGLIMGKIVAANNFDKPFWDGSIRNIWGFKWINNTFLDVQAKSN	not soluble
MSQANANFLDNSKVSANKTAESGQLKEFRTPPHNLAIEQAVLAALMTVAESFEQVNDLLKENDFYATRHKYIFRAIEKLAQENSPYDAVLVNDWLLKQNLLDAIGGEEYLMQLMADSPSSFYNLETYASKIKEFSTLRSMIKVSSDILQNAYDTKGRPVSEILDLAETSIFSLAEQHNNNKKDAGPKSISSVTADVISKLDELSKLDGNITGLTTGFLELDNKTYGMQSGDMIIVAARPSMGKTTFAMNLVESVLFNCNLPALVFSMEMPADSIAMRLISSYGKVHQGHLRSGKLDGDEWSKVTGTILQLQEKHLYIDDSSALPPTELRARARRIAKQHGGKLGCIMIDYLQLMKVPGMGDNRVGEIGEISRSLKALAKEMDCPVIALSQLNRSLENRPNKRPVMSDLRESGAIEQDADLIMFIYRDEVYNKESKEAGTAEIIIGKQRNGPIGTVRLAFEGQYTRFSNLSPEYYSQYDDEE	not soluble
MAHHHHHHMGSKYGSGNYQLFRALYKDLCDEIRREYYTKPPPPPPATRTTGASPSLVAAEAALEVHGSAGSGANDTSSGAAKQRSMAGGAGATSSSTQGGGMTAGSEREGSTVEAAHAARETAATPPSQPEETYGDGSWSVQHRPEDNVAVFHRGAVKRGRLAAVHAWARIELKDPPRLNAVLTFADWIPIEVCVERNGIVIHFSMAANEGGMHMRNVRVYEPKSAEERAALLDPSDDGEYARKNFYYDGPCLWHLELDMLNELYDVMQDHGVTLDWIRWAASWVFYLEHVNYVRWNLGMLEELIPSSLRGPEEDFLLPVEKALLAEPVEDWLRAHSI	not soluble
